According to the supplement of paper PMC10126150:
± gives the standard deviation of the averaged measurements.

Test system: ATP
Assay: switch fluorescence ratio, 500 uM ATP over buffer (Cy3 cluster intensity, sum of 5 cycles each) (fold (ratio)); higher = stronger signal-on switching upon ATP binding; sequences stand for … in TCGTCGGCAGCGTCAGATGTGTATAAGAGACAGTTTTTTTTTTTTTTTTTTTTTTTTT…TC
Details: aptamer strand: ATP DNA aptamer (quencher-CACCTGGGGGAGTATTGCGGAGGAAGG + anchor), 100 nM annealed; ATP concentration: 500 uM
Method in brief: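 Cy3-labelled switching-strand clusters on a modified Illumina MiSeq flow-cell were annealed to 100 nM quencher-labelled ATP aptamer and imaged first in selection buffer, then after 15 min with 500 uM ATP at 22 °C. NaOH stripping and re-annealing separated each of five buffer/ATP cycles, and clusters outside 100-1000 RFU were excluded. The fluorescence ratio sums target-cycle Cy3 intensity over buffer-cycle Cy3 intensity per cluster and averages it per switch-domain sequence.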
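Note: ATP exposure 15 min at 22 °C before imaging.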

| Sequence | switch fluorescence ratio |
| --- | --- |
| AGTAGCGGGA | 1.02 ± 0.024 |
| AGTAGCGGGT | 0.981 ± 0.026 |
| AGTAGGACTC | 1.01 ± 0.013 |
| AGTAGGGAAA | 1 ± 0.033 |
| AGTAGGGCAG | 0.9976 ± 0.006 |
| AGTAGGGCGA | 1 ± 0.092 |
| AGTAGGGCGT | 0.9964 ± 0.0088 |
| AGTAGGGCTT | 1.01 ± 0.039 |
| AGTAGGGGAG | 1.01 ± 0.028 |
| AGTAGGGGTG | 1.01 ± 0.032 |
| AGTAGGTAAT | 0.9902 ± 0.0071 |
| AGTAGGTG | 1.05 ± 0.04 |
| AGTAGTAAGA | 1.01 ± 0.022 |
| AGTAGTATAT | 0.994 ± 0.03 |
| AGTAGTATTT | 1.017 ± 0.0014 |
| AGTATAGCGA | 1.01 ± 0.035 |
| AGTATATAC | 1.02 ± 0.029 |
| AGTATCATGT | 1.02 ± 0.063 |
| AGTATCATTT | 0.952 ± 0.02 |
| AGTATGACGG | 0.986 ± 0.036 |
| AGTATGTAGC | 0.997 ± 0.032 |
| AGTATGTGAA | 0.97601 ± 0.00029 |
| AGTATTCAAA | 1 ± 0.018 |
| AGTATTCTTA | 0.99324 ± 0.00072 |
| AGTATTGCGA | 0.974 ± 0.01 |

| Sequence | switch fluorescence ratio |
| --- | --- |
| AGTATTGGGG | 0.999 ± 0.025 |
| AGTATTTAGT | 1.003 ± 0.0092 |
| AGTATTTTGC | 0.969 ± 0.085 |
| AGTATTTTGT | 0.974 ± 0.011 |
| AGTCAATGAC | 0.968 ± 0.012 |
| AGTCAATTGC | 1 ± 0.033 |
| AGTCAGATTC | 1 ± 0.058 |
| AGTCATCACC | 1.02 ± 0.023 |
| AGTCATCTGC | 1 ± 0.013 |
| AGTCATGGAG | 0.987 ± 0.042 |
| AGTCATGTGC | 0.979 ± 0.038 |
| AGTCCCGCCT | 1.12 ± 0.14 |
| AGTCCGATGT | 1.04 ± 0.038 |
| AGTCCGTCTA | 1.01 ± 0.05 |
| AGTCCTTGGA | 0.99 ± 0.069 |
| AGTCGACGTA | 1.04 ± 0.089 |
| AGTCGAGTGG | 1.02 ± 0.047 |
| AGTCGATGTG | 0.966 ± 0.025 |
| AGTCGATTTT | 0.978 ± 0.012 |
| AGTCGCACGA | 0.986 ± 0.016 |
| AGTCGGGCGG | 1 ± 0.026 |
| AGTCGGGGTT | 0.979 ± 0.01 |
| AGTCGGGTAC | 1.04 ± 0.033 |
| AGTCGGTACG | 0.994 ± 0.096 |
| AGTCTAAATT | 1.02 ± 0.011 |

| Sequence | switch fluorescence ratio |
| --- | --- |
| AGTCTGACCA | 1.018 ± 0.005 |
| AGTCTGGATG | 0.96 ± 0.02 |
| AGTCTGGTCC | 0.987 ± 0.01 |
| AGTCTGTGCT | 0.97353 ± 0.00097 |
| AGTCTTGCTG | 0.989 ± 0.02 |
| AGTCTTTTGT | 0.997 ± 0.026 |
| AGTCTTTTTT | 1 ± 0.0038 |
| AGTGAAGCTG | 0.996 ± 0.027 |
| AGTGAGAATC | 1.036 ± 0.0046 |
| AGTGAGGCGT | 0.984 ± 0.018 |
| AGTGAGTCCG | 0.996 ± 0.01 |
| AGTGAGTCTT | 0.994 ± 0.032 |
| AGTGATAGAT | 0.967 ± 0.023 |
| AGTGCAAAAG | 1.06 ± 0.029 |
| AGTGCAGGTT | 0.97386 ± 7.1e-05 |
| AGTGCGAAGG | 0.97211 ± 0.00025 |
| AGTGCGGGGA | 0.993 ± 0.04 |
| AGTGCGGGTC | 1.02 ± 0.012 |
| AGTGCTTCGT | 0.9905 ± 0.0094 |
| AGTGGAGGGG | 0.969 ± 0.029 |
| AGTGGAGGTG | 1.03 ± 0.043 |
| AGTGGCATGT | 0.986 ± 0.012 |
| AGTGGCCGGG | 1.01 ± 0.027 |
| AGTGGCGTGT | 0.988 ± 0.022 |
| AGTGGGAAAG | 0.965 ± 0.027 |

| Sequence | switch fluorescence ratio |
| --- | --- |
| AGTGGGCGCA | 1.04 ± 0.042 |
| AGTGGGGCAG | 0.986 ± 0.0071 |
| AGTGGGGCC | 1 ± 0.075 |
| AGTGGGGCTT | 0.985 ± 0.043 |
| AGTGGGGTTT | 0.976 ± 0.013 |
| AGTGGGTGCT | 1.02 ± 0.039 |
| AGTGGTCG | 1.04 ± 0.033 |
| AGTGGTGATC | 1.04 ± 0.018 |
| AGTGGTTCG | 1 ± 0.018 |
| AGTGGTTGTG | 0.973 ± 0.0069 |
| AGTGTAATAT | 1 ± 0.023 |
| AGTGTATGGC | 1.01 ± 0.032 |
| AGTGTCACGA | 1.01 ± 0.015 |
| AGTGTCGCTG | 1.008 ± 0.0012 |
| AGTGTCTGC | 0.97 ± 0.087 |
| AGTGTCTGGG | 0.992 ± 0.022 |
| AGTGTGAGGT | 0.9858 ± 0.0091 |
| AGTGTGTGGA | 1.04 ± 0.021 |
| AGTGTGTGGG | 1.02 ± 0.03 |
| AGTGTTCGTT | 0.959 ± 0.023 |
| AGTGTTGGGC | 1.05 ± 0.023 |
| AGTGTTTAAT | 0.999 ± 0.032 |
| AGTGTTTTGG | 0.967 ± 0.024 |
| AGTGTTTTTT | 1.01 ± 0.046 |
| AGTTAACATG | 0.978 ± 0.016 |

| Sequence | switch fluorescence ratio |
| --- | --- |
| AGTTAACTGT | 0.996 ± 0.032 |
| AGTTAAGAGC | 1.01 ± 0.038 |
| AGTTAAGATA | 0.9907 ± 0.0031 |
| AGTTACATTG | 1.02 ± 0.041 |
| AGTTACCA | 1.054 ± 0.0038 |
| AGTTACCTCT | 1.03 ± 0.013 |
| AGTTACGGGT | 1.033 ± 0.0032 |
| AGTTAGGAGG | 0.947 ± 0.053 |
| AGTTAGGGGA | 1.01 ± 0.038 |
| AGTTAGTGT | 0.978 ± 0.051 |
| AGTTAGTTTT | 1 ± 0.017 |
| AGTTATACAA | 1.01 ± 0.037 |
| AGTTATAGCT | 0.985 ± 0.014 |
| AGTTATAGTT | 0.997 ± 0.052 |
| AGTTCACTAT | 0.975 ± 0.011 |
| AGTTCATCTT | 0.964 ± 0.015 |
| AGTTCGATGT | 1.01 ± 0.025 |
| AGTTCGCTGT | 0.9889 ± 0.0067 |
| AGTTCGGGGT | 1.02 ± 0.024 |
| AGTTCGTAGT | 1.03 ± 0.049 |
| AGTTCGTTTT | 0.987 ± 0.019 |
| AGTTCTGGGT | 1.04 ± 0.081 |
| AGTTCTGTTT | 0.994 ± 0.047 |
| AGTTCTTATT | 0.965 ± 0.037 |
| AGTTGAAACA | 1.02 ± 0.016 |

| Sequence | switch fluorescence ratio |
| --- | --- |
| AGTTGAAGGA | 0.986 ± 0.027 |
| AGTTGAATT | 1.03 ± 0.046 |
| AGTTGACGGG | 1.03 ± 0.0082 |
| AGTTGACTTT | 0.986 ± 0.011 |
| AGTTGCATGC | 0.9677 ± 0.0093 |
| AGTTGGGACT | 1.016 ± 0.0068 |
| AGTTGGGATT | 1.032 ± 0.01 |
| AGTTGGGTAT | 1.02 ± 0.012 |
| AGTTGGGTTT | 0.9964 ± 0.0071 |
| AGTTGGTCGG | 0.975 ± 0.031 |
| AGTTGGTGAG | 0.98 ± 0.034 |
| AGTTGGTTTT | 1.02 ± 0.033 |
| AGTTGTAGGG | 1 ± 0.016 |
| AGTTGTATGG | 0.9738 ± 0.0049 |
| AGTTGTGTGC | 0.952 ± 0.044 |
| AGTTGTGTTA | 1.007 ± 0.0057 |
| AGTTGTTACA | 1.01 ± 0.032 |
| AGTTGTTGTT | 0.981 ± 0.022 |
| AGTTGTTTCG | 1.016 ± 0.0023 |
| AGTTTAACGC | 0.9911 ± 0.0059 |
| AGTTTAAGAT | 1.005 ± 0.0071 |
| AGTTTACGAT | 1.037 ± 0.0099 |
| AGTTTACTTT | 1.03 ± 0.017 |
| AGTTTATTTT | 0.986 ± 0.034 |
| AGTTTCAGGC | 1.01 ± 0.031 |

| Sequence | switch fluorescence ratio |
| --- | --- |
| AGTTTCGGAA | 1.021 ± 0.0038 |
| AGTTTGCTGG | 0.996 ± 0.039 |
| AGTTTGGCAG | 0.998 ± 0.035 |
| AGTTTGGCTT | 0.99 ± 0.011 |
| AGTTTGGGTT | 1.01 ± 0.073 |
| AGTTTGTGGG | 0.984 ± 0.0025 |
| AGTTTGTGTG | 0.977 ± 0.014 |
| AGTTTGTTCC | 1.02 ± 0.047 |
| AGTTTTAAGG | 1 ± 0.025 |
| AGTTTTACAA | 1.03 ± 0.012 |
| AGTTTTACAT | 0.9608 ± 0.0018 |
| AGTTTTAGCC | 1 ± 0.027 |
| AGTTTTAGGT | 1.02 ± 0.036 |
| AGTTTTAGTA | 0.974 ± 0.03 |
| AGTTTTATCA | 0.97 ± 0.015 |
| AGTTTTGTCG | 1.01 ± 0.022 |
| AGTTTTTTTA | 0.981 ± 0.018 |
| ATAAAAAAGC | 1.02 ± 0.074 |
| ATAAAAGGCG | 1.021 ± 0.0061 |
| ATAAAATCTA | 1.02 ± 0.061 |
| ATAAACTATA | 1.04 ± 0.06 |
| ATAAAGGGCC | 0.99 ± 0.012 |
| ATAAAGTTCC | 1.13 ± 0.038 |
| ATAAATCGAT | 1.023 ± 0.0018 |
| ATAAATGATA | 1 ± 0.049 |

| Sequence | switch fluorescence ratio |
| --- | --- |
| ATAAATGCCG | 0.961 ± 0.12 |
| ATAACACATG | 1.01 ± 0.032 |
| ATAACCATCA | 0.996 ± 0.057 |
| ATAAGAAGCG | 1.02 ± 0.04 |
| ATAAGCGATT | 1.03 ± 0.024 |
| ATAAGCGGGG | 1.01 ± 0.04 |
| ATAAGCTGGT | 0.953 ± 0.021 |
| ATAAGGAGTA | 1 ± 0.016 |
| ATAAGGCCTA | 0.991 ± 0.038 |
| ATAAGGCGAG | 0.998 ± 0.025 |
| ATAAGGGTAG | 1.028 ± 0.0054 |
| ATAAGGTCGC | 0.927 ± 0.021 |
| ATAAGGTTCC | 1.091 ± 0.005 |
| ATAAGTAACG | 1 ± 0.015 |
| ATAAGTACTC | 1.28 ± 0.1 |
| ATAAGTCCGG | 1.03 ± 0.042 |
| ATAAGTGCAT | 1 ± 0.016 |
| ATAAGTGTCA | 0.9926 ± 0.0067 |
| ATAAGTTCTT | 0.995 ± 0.033 |
| ATAAGTTGGT | 0.987 ± 0.046 |
| ATAAGTTGTT | 0.993 ± 0.02 |
| ATAAGTTTTA | 0.989 ± 0.0099 |
| ATAATACGGG | 1.03 ± 0.017 |
| ATAATAGGTT | 0.986 ± 0.028 |
| ATAATATACT | 1.04 ± 0.055 |
